Assay results as given in publication PMC11301264, “Bactericidal human monoclonal antibody 1B1 shows specificity for meningococcal factor H binding protein variant 2 and displaces human factor H” (FASEB BioAdvances, 2024).

What was measured:
[1] = target: fHbp variant 1.1 on live meningococci of MenB strain MC58 (Neisseria meningitidis (endogenous in strain MC58)) (UniProt Q9JXV4)
[2] = target: fHbp variant 3.28 on live meningococci of MenB strain M1239 (Neisseria meningitidis (endogenous in strain M1239)) (UniProt E6MV22)
[3] = target: T1, factor H binding protein (fHbp) variant 2.16, wild type, recombinant (Neisseria meningitidis serogroup B, …, strain); test: BLI; mAb (1B1 or 4B3, 10 mcg/mL) captured via Fc on Anti-Fc Human (AHC) biosensors; fHbp in solution, 150 to 1 nM; 30°C; 1 x PBS, 1% (w/v) BSA; 1:1 fit; details: both partners purified
T1 construct: Construct described in earlier work; vector pET-21b is named for the template plasmid; also called fHbp var 2; v2.16
T1 chain: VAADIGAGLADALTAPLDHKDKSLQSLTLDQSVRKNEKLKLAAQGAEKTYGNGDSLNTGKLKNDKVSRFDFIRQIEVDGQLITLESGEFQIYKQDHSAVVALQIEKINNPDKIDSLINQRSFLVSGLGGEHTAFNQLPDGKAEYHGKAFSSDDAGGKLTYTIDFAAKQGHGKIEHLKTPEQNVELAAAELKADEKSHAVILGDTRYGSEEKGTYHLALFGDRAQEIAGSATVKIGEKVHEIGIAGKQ

B1: human monoclonal antibody 1B1, full-length IgG1 (antibody, V domains shown)
VH: EVQLVESGGNLVQPGGSLRLSCAASGFTFSSYSMNWVRQAPGKGLEWVSYISSSSSTIYYADSVKGRFTISRDNAKNSLYLQMNSLRAEDTAVYYCARVAAGLKDWGQGTLVTVSS
VL: EIVLTQSPGTLSLSPGERATLSCRASQSISSSYLAWYQQKPGQAPRLLIFGASSRATGIPDRFSGSGSGTGFTLTISRLEPEDFAVYYCQHYDSSLPMTFGQGTKVEIK
notes: also called humAb 1B1; mAb 1B1; source: mammalian cells, recombinant, purified as described previously
With B1 as the binder, how does the hSBA (human complement) titer against MenB strain MC58 [1] read?
Its hSBA (human complement) titer against MenB strain MC58 is less than 4 titer.

What about the rSBA (rabbit complement) titer against MenB strain MC58 [1] of the same binder?
Its rSBA (rabbit complement) titer against MenB strain MC58 is less than 16 titer.

What about the hSBA (human complement) titer against strain 5/99DD complemented with fHbp 3.28 [2] of the same binder?
The hSBA (human complement) titer against strain 5/99DD complemented with fHbp 3.28 was less than 4 titer.

And the rSBA (rabbit complement) titer against strain 5/99DD complemented with fHbp 3.28 [2]?
The rSBA (rabbit complement) titer against strain 5/99DD complemented with fHbp 3.28 was less than 16 titer.

And the Kd [3]?
Its Kd is 0.24 nM.
